The record followed here is patent US20170305994A1 (Novo Nordisk, published 2017).

In assay [1] the target is T1, human DR3 (full length, on cells) (human, UniProt Q93038 25-417).
T1 sequence: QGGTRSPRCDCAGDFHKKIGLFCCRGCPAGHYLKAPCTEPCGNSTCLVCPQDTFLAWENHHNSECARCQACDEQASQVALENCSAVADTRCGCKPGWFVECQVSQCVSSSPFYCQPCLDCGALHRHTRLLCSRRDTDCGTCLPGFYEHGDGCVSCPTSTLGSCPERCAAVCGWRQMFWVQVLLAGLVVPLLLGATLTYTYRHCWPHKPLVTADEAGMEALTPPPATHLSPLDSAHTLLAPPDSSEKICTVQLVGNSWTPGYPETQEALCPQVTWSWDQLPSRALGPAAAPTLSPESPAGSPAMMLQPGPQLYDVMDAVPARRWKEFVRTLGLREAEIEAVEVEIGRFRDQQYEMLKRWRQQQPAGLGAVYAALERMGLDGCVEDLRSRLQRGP
Kind of assay: cell-based or functional assay.

For assay [2], the target named is T2, cynomolgus DR3 (on HEK293 reporter cells) (cynomolgus, UniProt A0A2K5WJ09 98-464).
T2 sequence: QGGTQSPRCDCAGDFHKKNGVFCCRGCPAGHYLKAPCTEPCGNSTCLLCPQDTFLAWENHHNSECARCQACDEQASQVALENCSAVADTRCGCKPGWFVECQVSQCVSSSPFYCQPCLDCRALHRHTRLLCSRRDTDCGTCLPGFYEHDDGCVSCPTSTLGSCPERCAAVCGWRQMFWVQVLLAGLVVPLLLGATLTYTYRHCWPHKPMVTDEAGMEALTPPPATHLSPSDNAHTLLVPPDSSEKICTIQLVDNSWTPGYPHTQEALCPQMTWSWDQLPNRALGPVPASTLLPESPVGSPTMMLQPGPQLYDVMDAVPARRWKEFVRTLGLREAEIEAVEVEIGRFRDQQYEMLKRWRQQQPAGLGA
Kind of assay: cell-based or functional assay.

Assay [3] concerns the target T1, human DR3 (full length, on cells). Kind of assay: cell-based or functional assay. This is another data set of the same source.
Assay [4] deals with T2, cynomolgus DR3 (on HEK293 reporter …). Kind of assay: cell-based or functional assay. The source holds these as a separate data set.
Assay [5] addresses T3, marmoset DR3 (transiently expressed on HEK293 cells) (marmoset, UniProt U3ENN5 27-418).
T3 sequence: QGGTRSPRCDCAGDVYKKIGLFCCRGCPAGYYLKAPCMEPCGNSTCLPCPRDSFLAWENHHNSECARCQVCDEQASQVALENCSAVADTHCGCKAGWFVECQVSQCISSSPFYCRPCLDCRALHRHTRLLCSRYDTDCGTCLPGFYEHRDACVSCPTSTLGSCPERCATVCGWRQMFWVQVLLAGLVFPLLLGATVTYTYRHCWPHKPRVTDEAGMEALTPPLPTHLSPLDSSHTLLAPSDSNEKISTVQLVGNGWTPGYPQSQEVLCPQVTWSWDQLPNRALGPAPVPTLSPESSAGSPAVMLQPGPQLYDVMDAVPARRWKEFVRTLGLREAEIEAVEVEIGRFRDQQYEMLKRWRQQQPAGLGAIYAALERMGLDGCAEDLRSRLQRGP
Kind of assay: cell-based or functional assay.

The target of assay [6] is T1, human DR3 (full length, on cells). Kind of assay: cell-based or functional assay. The source holds these as a separate data set.
Assay [7] addresses T4, human DR3 with the death domain deleted (ΔM339-P417 of SEQ ID NO:1), expressed on CHOK1SV cells (human, UniProt Q93038 25-338).
T4 construct: also called truncated DR3; hDR3 expressing CHO cells
T4 sequence: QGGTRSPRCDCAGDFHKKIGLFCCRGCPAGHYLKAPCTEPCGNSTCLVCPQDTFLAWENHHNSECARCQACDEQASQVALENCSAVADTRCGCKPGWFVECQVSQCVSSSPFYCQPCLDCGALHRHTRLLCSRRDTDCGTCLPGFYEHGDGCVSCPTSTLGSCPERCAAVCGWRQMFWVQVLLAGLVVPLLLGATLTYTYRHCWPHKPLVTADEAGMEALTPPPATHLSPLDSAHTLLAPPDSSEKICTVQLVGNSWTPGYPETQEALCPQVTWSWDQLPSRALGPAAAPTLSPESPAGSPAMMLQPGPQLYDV
Kind of assay: flow cytometry competition: Fab vs TL1A on hDR3-expressing CHO cells. For orientation: Flow cytometry measures light scatter and fluorescence of single cells or particles in a stream.

Assay [8] concerns the target T5, DR3 (CRD1)-Fc (human).
T5 construct: Amino acids 25-71 of DR3 fused to the Fc domain of human IgG4; purified to exclude oligomers (mainly dimeric)
Kind of assay: SPR Biacore T200, DR3(CRD1)-Fc captured by anti-human IgG, Fab as analyte, 25 C, 1:1 model, mean of 3 surface densities. As for the experimental part:
The experiments were performed on a Biacore T200 instrument (GE Healthcare) and analysed with the Biacore T200 Evaluation Software. Anti human IgG antibodies (human IgG capture kit from GE Healthcare) were immobilized on all flow cells of a CM5 sensor chip according to manufacturer's instructions. HBS-EP (GE Healthcare) with 0.1% human serum albumin was used as running buffer. DR3(CRD1)-Fc (SEQ ID NO:2) was captured on the chip at low surface densities between 14 and 45 RU. Fab fragments were diluted to concentrations between 90 and 0.037 nM and subsequently injected for 360 s. […] Binding curves were measured at 25° C. with a flow rate between 30 and 60 μL/min.
Regeneration was performed with 3 M […] for 2×20 s. The raw data were double referenced by subtraction of the signals from a reference flow cell without captured ligand and a buffer blank. Determination of the kinetic parameters was performed by fitting with a 1:1 binding model using the Biacore T200 Evaluation Software (GE Healthcare). Average values obtained from 3 different surface densities of DR3(CRD1)-Fc (SEQ ID NO:2) were calculated and are stated in table 14
(SPR reads the build-up and loss of mass on a sensor chip optically.)

T5 sequence (chain, as listed by the source limits assumed): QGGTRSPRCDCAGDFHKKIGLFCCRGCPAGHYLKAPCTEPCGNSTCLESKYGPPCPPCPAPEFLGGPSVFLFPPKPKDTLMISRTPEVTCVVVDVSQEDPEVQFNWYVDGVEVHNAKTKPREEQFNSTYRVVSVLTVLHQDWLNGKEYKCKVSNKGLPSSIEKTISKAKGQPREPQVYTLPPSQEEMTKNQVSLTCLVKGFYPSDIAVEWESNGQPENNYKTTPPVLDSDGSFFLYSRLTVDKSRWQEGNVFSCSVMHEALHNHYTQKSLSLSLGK

B1: 0228 (humanized Fab of 27F44, IgG4, hz0072VH S49A / hz0072VL) (Fab, V domains shown)
VH: EVQLVESGGGLVQPGGSLRLSCAASGFTFSNYDMSWVRQATGKGLEWVAAFSSDGYTFYPGSVKGRFTISRENAKNSLYLQMNSLRAGDTAVYYCARHADYANYPVMDYWGQGTLVTVSS
VL: DIQMTQSPSSLSASVGDRVTITCRASKSVSTSGYSYMHWYQQKPGKAPKLLIYLASNLESGVPSRFSGSGSGTDFTLTISSLQPEDFATYYCQHSRELPLTFGGGTKVEIKR
notes: IgG4-Cys, hz (humanized IgG4 Fab with the hinge cysteine kept)
The IC50 is the midpoint of a concentration-inhibition curve. Low values mean inhibition by little substance, high ones a need for much substance. For orientation: Kd means the concentration at which binding is half-saturated. A higher Kd goes with lower affinity. The term koff denotes the rate constant with which the complex falls apart. Lower therefore signals slow dissociation. As usually defined, the kon is a measure of how fast the partners come together. In the case of B1, inhibition in assay [1] was half-maximal at 0.32 nM (IC50 at 40 ng/ml TL1A, I5 reporter cells). In assay [2], half-maximal inhibition (IC50 at 40 ng/ml TL1A, Lyda20 reporter cells) was put at 628 nM. Further, the “IC50 at 40 ng/ml TL1A, transient reporter HEK293” value in assay [3] came to 0.355 nM. For the same molecule, the “IC50 at 40 ng/ml TL1A, transient reporter HEK293” value in assay [4] came to 73 nM. Moreover, 0.549 nM corresponded to half-maximal inhibition in assay [5] (IC50 at 40 ng/ml TL1A, transient reporter HEK293). Besides, in assay [6], the “IC50, TNFalpha inhibition, TL1A-activated CD4+ T cells, donor 1” value turned out to be 0.3 nM; the “IC50, TNFalpha inhibition, TL1A-activated CD4+ T cells, donor 2” value is 0.17 nM; the “IC50, TNFalpha inhibition, average (n 3)” value was determined as 0.189 nM; the “max % inhibition of TNFalpha, donor 1” value was 92.2%. Further, the “max % inhibition of TNFalpha, donor 2” value in assay [6] was 82.3%. In assay [7], the half-inhibitory concentration (IC50) turned out to be 0.484 nM and the max percentage inhibition is 78%. In assay [8], this molecule registered a dissociation constant (Kd) of 0.00805 nM, a koff of 3.19e-05 s⁻¹ and an on-rate constant (kon) of 3.97e+06 M⁻¹ s⁻¹.
